Source: the supplement of paper PMC9112550, “Optimization of the antimicrobial peptide Bac7 by deep mutational scanning” (BMC Biology, 2022)

What follows are sequences tested on Escherichia coli TOP10 (assay: shrunken log2 fold change of peptide-encoding DNA abundance (4.5 h post-induction vs induction); higher = less antimicrobial activity (less host growth inhibition)). Settings: time post-induction: 4.5 h; library: site-saturation at positions 5, 18, 19, 20.
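Further: peptides expressed intracellularly from a pBAD plasmid library in pooled LB shake-flask culture, induced with 0.3% L-arabinose, DNA abundance read by NGS, three biological replicates, DESeq2 with apeglm shrinkage.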

Row | Sequence | shrunken log2 fold change
1 | RRIRYRPPRLPRPRPRPEYCPRP | -0.414
2 | RRIRYRPPRLPRPRPRPEYFPRP | -0.744
3 | RRIRYRPPRLPRPRPRPFAHPRP | -0.00804
4 | RRIRYRPPRLPRPRPRPFAIPRP | -0.158
5 | RRIRYRPPRLPRPRPRPFANPRP | -0.245
6 | RRIRYRPPRLPRPRPRPFARPRP | -0.084
7 | RRIRYRPPRLPRPRPRPFCAPRP | -0.415
8 | RRIRYRPPRLPRPRPRPFDWPRP | -0.122
9 | RRIRYRPPRLPRPRPRPFFHPRP | -1.2
10 | RRIRYRPPRLPRPRPRPFFMPRP | -0.71
11 | RRIRYRPPRLPRPRPRPFGLPRP | -0.282
12 | RRIRYRPPRLPRPRPRPFHNPRP | -0.451
13 | RRIRYRPPRLPRPRPRPFIIPRP | -1.23
14 | RRIRYRPPRLPRPRPRPFIYPRP | -0.86
15 | RRIRYRPPRLPRPRPRPFKCPRP | -0.135
16 | RRIRYRPPRLPRPRPRPFKYPRP | -0.689
17 | RRIRYRPPRLPRPRPRPFLEPRP | -0.775
18 | RRIRYRPPRLPRPRPRPFMGPRP | -0.316
19 | RRIRYRPPRLPRPRPRPFMWPRP | -0.307
20 | RRIRYRPPRLPRPRPRPFNCPRP | -0.362
21 | RRIRYRPPRLPRPRPRPFNIPRP | -0.973
22 | RRIRYRPPRLPRPRPRPFNLPRP | -0.271
23 | RRIRYRPPRLPRPRPRPFQMPRP | -0.143
24 | RRIRYRPPRLPRPRPRPFRGPRP | -0.303
25 | RRIRYRPPRLPRPRPRPFRMPRP | -0.0929

Row | Sequence | shrunken log2 fold change
26 | RRIRYRPPRLPRPRPRPFSHPRP | -0.0363
27 | RRIRYRPPRLPRPRPRPFSLPRP | -1.22
28 | RRIRYRPPRLPRPRPRPFSPPRP | -0.319
29 | RRIRYRPPRLPRPRPRPFTFPRP | -1.08
30 | RRIRYRPPRLPRPRPRPFVTPRP | -0.156
31 | RRIRYRPPRLPRPRPRPFWSPRP | -0.363
32 | RRIRYRPPRLPRPRPRPGCEPRP | 0.0164
33 | RRIRYRPPRLPRPRPRPGCGPRP | -0.0402
34 | RRIRYRPPRLPRPRPRPGCHPRP | -0.711
35 | RRIRYRPPRLPRPRPRPGDAPRP | 0.0773
36 | RRIRYRPPRLPRPRPRPGDPPRP | -0.223
37 | RRIRYRPPRLPRPRPRPGEQPRP | 0.0237
38 | RRIRYRPPRLPRPRPRPGEWPRP | 0.0486
39 | RRIRYRPPRLPRPRPRPGFGPRP | -0.0613
40 | RRIRYRPPRLPRPRPRPGFWPRP | 0.689
41 | RRIRYRPPRLPRPRPRPGGKPRP | 0.0336
42 | RRIRYRPPRLPRPRPRPGHDPRP | -0.0736
43 | RRIRYRPPRLPRPRPRPGIIPRP | -0.0361
44 | RRIRYRPPRLPRPRPRPGIKPRP | -0.311
45 | RRIRYRPPRLPRPRPRPGIPPRP | -0.193
46 | RRIRYRPPRLPRPRPRPGKCPRP | -0.264
47 | RRIRYRPPRLPRPRPRPGKIPRP | -0.524
48 | RRIRYRPPRLPRPRPRPGKNPRP | -0.13
49 | RRIRYRPPRLPRPRPRPGMCPRP | 0.0154
50 | RRIRYRPPRLPRPRPRPGMGPRP | -0.195

Row | Sequence | shrunken log2 fold change
51 | RRIRYRPPRLPRPRPRPGNNPRP | -0.359
52 | RRIRYRPPRLPRPRPRPGNTPRP | -1.18
53 | RRIRYRPPRLPRPRPRPGPWPRP | 0.18
54 | RRIRYRPPRLPRPRPRPGQLPRP | -0.284
55 | RRIRYRPPRLPRPRPRPGRKPRP | -0.155
56 | RRIRYRPPRLPRPRPRPGRLPRP | -0.0505
57 | RRIRYRPPRLPRPRPRPGRMPRP | -0.642
58 | RRIRYRPPRLPRPRPRPGRTPRP | -0.121
59 | RRIRYRPPRLPRPRPRPGSEPRP | -0.202
60 | RRIRYRPPRLPRPRPRPGSWPRP | 0.0212
61 | RRIRYRPPRLPRPRPRPGTHPRP | -0.678
62 | RRIRYRPPRLPRPRPRPGWDPRP | -0.0163
63 | RRIRYRPPRLPRPRPRPGWGPRP | -0.13
64 | RRIRYRPPRLPRPRPRPGWKPRP | 0.00711
65 | RRIRYRPPRLPRPRPRPHCTPRP | -0.372
66 | RRIRYRPPRLPRPRPRPHCVPRP | -0.0324
67 | RRIRYRPPRLPRPRPRPHDRPRP | 0.0039
68 | RRIRYRPPRLPRPRPRPHFLPRP | -0.13
69 | RRIRYRPPRLPRPRPRPHFNPRP | -1.23
70 | RRIRYRPPRLPRPRPRPHFSPRP | -0.256
71 | RRIRYRPPRLPRPRPRPHGAPRP | -0.0794
72 | RRIRYRPPRLPRPRPRPHGSPRP | -0.00822
73 | RRIRYRPPRLPRPRPRPHHSPRP | -1.27
74 | RRIRYRPPRLPRPRPRPHLPPRP | -0.542
75 | RRIRYRPPRLPRPRPRPHMSPRP | -0.452

Row | Sequence | shrunken log2 fold change
76 | RRIRYRPPRLPRPRPRPHMYPRP | -0.327
77 | RRIRYRPPRLPRPRPRPHPMPRP | -0.191
78 | RRIRYRPPRLPRPRPRPHPTPRP | -0.289
79 | RRIRYRPPRLPRPRPRPHQHPRP | 0.0599
80 | RRIRYRPPRLPRPRPRPHQPPRP | -0.748
81 | RRIRYRPPRLPRPRPRPHRKPRP | -0.501
82 | RRIRYRPPRLPRPRPRPHRLPRP | -0.0157
83 | RRIRYRPPRLPRPRPRPHSEPRP | -0.0168
84 | RRIRYRPPRLPRPRPRPHTIPRP | -0.852
85 | RRIRYRPPRLPRPRPRPHTSPRP | -1.04
86 | RRIRYRPPRLPRPRPRPHVLPRP | -0.0311
87 | RRIRYRPPRLPRPRPRPICCPRP | -0.137
88 | RRIRYRPPRLPRPRPRPIDDPRP | -1.19
89 | RRIRYRPPRLPRPRPRPIDLPRP | -0.0513
90 | RRIRYRPPRLPRPRPRPIEMPRP | 0.0294
91 | RRIRYRPPRLPRPRPRPIFCPRP | -0.201
92 | RRIRYRPPRLPRPRPRPIGLPRP | -0.0167
93 | RRIRYRPPRLPRPRPRPIIMPRP | -0.0214
94 | RRIRYRPPRLPRPRPRPIIPPRP | -0.825
95 | RRIRYRPPRLPRPRPRPIIQPRP | -0.0128
96 | RRIRYRPPRLPRPRPRPIKIPRP | -0.105
97 | RRIRYRPPRLPRPRPRPILFPRP | -0.945
98 | RRIRYRPPRLPRPRPRPILHPRP | -0.141
99 | RRIRYRPPRLPRPRPRPILPPRP | 0.00451
100 | RRIRYRPPRLPRPRPRPIMQPRP | -0.107

Row | Sequence | shrunken log2 fold change
101 | RRIRYRPPRLPRPRPRPINPPRP | -0.269
102 | RRIRYRPPRLPRPRPRPIQGPRP | -0.0804
103 | RRIRYRPPRLPRPRPRPIRLPRP | 0.0224
104 | RRIRYRPPRLPRPRPRPISMPRP | 0.0342
105 | RRIRYRPPRLPRPRPRPISQPRP | -0.299
106 | RRIRYRPPRLPRPRPRPISTPRP | -0.0632
107 | RRIRYRPPRLPRPRPRPITIPRP | -0.149
108 | RRIRYRPPRLPRPRPRPIVEPRP | 0.00721
109 | RRIRYRPPRLPRPRPRPIVRPRP | -0.0319
110 | RRIRYRPPRLPRPRPRPIWPPRP | -0.00922
111 | RRIRYRPPRLPRPRPRPIWQPRP | -0.105
112 | RRIRYRPPRLPRPRPRPKCKPRP | -0.161
113 | RRIRYRPPRLPRPRPRPKDSPRP | -0.0869
114 | RRIRYRPPRLPRPRPRPKEYPRP | 0.171
115 | RRIRYRPPRLPRPRPRPKGQPRP | 0.0405
116 | RRIRYRPPRLPRPRPRPKHSPRP | -0.875
117 | RRIRYRPPRLPRPRPRPKKKPRP | -0.104
118 | RRIRYRPPRLPRPRPRPKKPPRP | 0.00704
119 | RRIRYRPPRLPRPRPRPKLCPRP | -0.0301
120 | RRIRYRPPRLPRPRPRPKLDPRP | -0.351
121 | RRIRYRPPRLPRPRPRPKLFPRP | -0.0593
122 | RRIRYRPPRLPRPRPRPKLRPRP | -0.111
123 | RRIRYRPPRLPRPRPRPKLTPRP | -0.173
124 | RRIRYRPPRLPRPRPRPKMHPRP | -0.561
125 | RRIRYRPPRLPRPRPRPKMNPRP | -0.616

Row | Sequence | shrunken log2 fold change
126 | RRIRYRPPRLPRPRPRPKMRPRP | 0.198
127 | RRIRYRPPRLPRPRPRPKNMPRP | -0.477
128 | RRIRYRPPRLPRPRPRPKNYPRP | -1.38
129 | RRIRYRPPRLPRPRPRPKTAPRP | -0.0087
130 | RRIRYRPPRLPRPRPRPKTGPRP | -0.243
131 | RRIRYRPPRLPRPRPRPKTMPRP | -0.614
132 | RRIRYRPPRLPRPRPRPKTRPRP | -0.142
133 | RRIRYRPPRLPRPRPRPKVMPRP | -0.296
134 | RRIRYRPPRLPRPRPRPKYPPRP | -0.0165
135 | RRIRYRPPRLPRPRPRPLAFPRP | -0.827
136 | RRIRYRPPRLPRPRPRPLAHPRP | -0.15
137 | RRIRYRPPRLPRPRPRPLAIPRP | -0.778
138 | RRIRYRPPRLPRPRPRPLCRPRP | -0.863
139 | RRIRYRPPRLPRPRPRPLDAPRP | -0.0975
140 | RRIRYRPPRLPRPRPRPLDKPRP | -0.0449
141 | RRIRYRPPRLPRPRPRPLECPRP | -0.183
142 | RRIRYRPPRLPRPRPRPLENPRP | -0.0143
143 | RRIRYRPPRLPRPRPRPLEQPRP | -0.121
144 | RRIRYRPPRLPRPRPRPLEWPRP | 0.00157
145 | RRIRYRPPRLPRPRPRPLFAPRP | -0.492
146 | RRIRYRPPRLPRPRPRPLFDPRP | 0.802
147 | RRIRYRPPRLPRPRPRPLGCPRP | -0.198
148 | RRIRYRPPRLPRPRPRPLGYPRP | -0.162
149 | RRIRYRPPRLPRPRPRPLHAPRP | 0.000596
150 | RRIRYRPPRLPRPRPRPLHTPRP | -0.169
